Here are results for 15 sequences from the supplement of paper PMC9170038.

The data set has as its system MS2 coat protein. Put plainly: apparent KD of MS2 coat protein; designed switch direction (-1 OFF switch, 1 ON switch): -1; higher = weaker reporter binding. In short, it runs like this: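 Normalised cluster fluorescence was curve-fitted, and each design's median over clusters is its apparent KD. Before this, SNAP-549-labelled MS2 coat protein was titrated from 0.7 or 1.5 nM, doubling to 3 µM, over RNA switches transcribed on Illumina chips by stalled E. coli RNA polymerase. Titrations had no input, 200 uM small-molecule ligand, or an oligonucleotide input, and steps lasted 0.8–1.5 h (lowest) to 10–20 min (highest).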

Setting [1] is: input ligand: microRNA oligo, concentration not stated.
[2] abbreviates: Eterna round: R95, input ligand: FMN 200 uM.
Where [3] appears, read: Eterna round: R95, input ligand: microRNA oligo, concentration not stated.
Where [4] appears, read: Eterna round: R95, input ligand: none.

With “AAACGGGUGUCCUCGUUUUCAACAUGAGGAUCACCCAUGUUCGAGGAUAUCCGAUAAGCUCUUCAGGAGAAGGCGAACAUAAAA [Eninenat] (Eterna round: R96, puzzle: Exclusion NG 3)”, the “apparent KD of MS2 coat protein” value (input ligand: FMN 200 uM) came out at 0.0147 µM, the “apparent KD of MS2 coat protein” value under setting [1] was 0.0321 µM and the “apparent KD of MS2 coat protein” value (input ligand: none) was determined as 0.0184 µM.
As for “AAAGAAACAUGAGGAUCACCCAUGUCUGAUCCAAUGUUUAGUCAGGAUAUGCGUCCGACUUCGGAGCAGAAGGGAUACAGGUAG [Anlaanma] (Eterna round: R96, puzzle: Exclusion NG 3)”, the “apparent KD of MS2 coat protein” value (input ligand: FMN 200 uM) was found to be 0.125 µM, the “apparent KD of MS2 coat protein” value under setting [1] was 0.357 µM and the “apparent KD of MS2 coat protein” value (input ligand: none) was 0.356 µM.
As to “AAAGAGCUAGGAUAUCGCGACCUUGACAUGAGGAUCACCCAUGUGCCCUCGUAACAACGACGAGAAGGAGCGAAAA [Gelaladied] (puzzle: Exclusion 5)”, the “apparent KD of MS2 coat protein” value was determined as 0.0362 µM under setting [2], 0.0168 µM under setting [3] and 0.0199 µM under setting [4].
Turning to “AAAGGGUCAGGAUAUCCUGUGAAGAAGAAGUUGUUGUCGCGGGAGAAGGGACAUGAGGAUCACCCAUGUAGAGC [A Simple Submission] (Eterna round: R97, puzzle: Exclusion 4)”, the “apparent KD of MS2 coat protein” value (input ligand: FMN 200 uM) was determined as 0.0529 µM and the “apparent KD of MS2 coat protein” value (input ligand: none) amounted to 0.0536 µM.
As for “AAAGUGUAAGGAUAUCCGAAAAGCGAGCGAAAGCGAGCGAAGGAGAAGGUACAUGAGGAUCACCCAUGUAAGGG [AK-MS2ROC-r4-exclusion4-11.5] (Eterna round: R97, puzzle: Exclusion 4)”, the “apparent KD of MS2 coat protein” value (input ligand: FMN 200 uM) was found to be 0.215 µM and the “apparent KD of MS2 coat protein” value (input ligand: none) stood at 0.961 µM.
With “AAAGUGUCAGGAUAUUGUUAGUUUAGUUGUUUGUAUUAGUUCGAGAAGGGACAUGAGGAUCACCCAUGUUGUAA [Ex4 #64] (Eterna round: R97, puzzle: Exclusion 4)”, the “apparent KD of MS2 coat protein” value runs as follows: (input ligand: FMN 200 uM) 0.0245 µM; (input ligand: none) 0.0322 µM.
“AAAGUUCGAGGAUAUCUACUUAGCUACAUGAGGAUCACCCAUGUUAUCCUCCCGCUGGGAAGAGAAGGCGGUUAAA [Xeonceso] (Eterna round: R96, puzzle: Exclusion 5)”: the “apparent KD of MS2 coat protein” value (input ligand: FMN 200 uM) was determined as 0.138 µM, the “apparent KD of MS2 coat protein” value under setting [1] worked out at 0.0271 µM and the “apparent KD of MS2 coat protein” value (input ligand: none) came out at 0.0341 µM.
As to “AAAGUUCGAGGAUAUCUACUUAGCUACAUGAGGAUCACCCAUGUUAUCCUCCCGCUGGGAAGAGAAGGCGGUUAAA [Xeonceso] (puzzle: Exclusion 5)”, the “apparent KD of MS2 coat protein” value runs as follows: under setting [2], 0.186 µM; under setting [3], 0.0417 µM; under setting [4], 0.0417 µM.
Consider “AAAUAACAAGCAGGAUCCUACAUGAGGAUCACCCAUGUGCUCGUCUUAUAAAGUACUAUCACGAAAGUGAUAGUACA [Sensor 3, v1 - 14] (puzzle: Sensor v3, turn-off variant 1)”, for which the “apparent KD of MS2 coat protein” value was 0.434 µM under setting [2], 0.0846 µM under setting [3] and 0.363 µM under setting [4].
As to “AAAUAACAAGCGAGAUCCUACAUGAGGAUCACCCAUGUGCUCGUCUUAAGAAGUACUAUCACGAAAGUGAUAGUACA [Mat - Sensor v3 - turn-off var 1 - Eli Mod - D68] (puzzle: Sensor v3, turn-off variant 1)”, the “apparent KD of MS2 coat protein” value was found to be 0.0176 µM under setting [2], 0.066 µM under setting [3] and 0.0147 µM under setting [4].
Turning to “AAAUAGCUAGAGGAUAUCGGAUAGGAUUUACUACGAGAAGGUUAGACAUGAGGAUCACCCAUGUUGUGUUGGGA [EX6 #19] (Eterna round: R97, puzzle: Exclusion 6)”, the “apparent KD of MS2 coat protein” value was found to be 0.0596 µM (input ligand: FMN 200 uM) and 0.0679 µM (input ligand: none).
On to “AAAUCGGAGGAGGAUAUGGUACAGGAAAUGGUGCCAGAAGGUUUCACAUGAGGAUCACCCAUGUCAAAUAGCGA [EX6 #60] (Eterna round: R97, puzzle: Exclusion 6)”, for which the “apparent KD of MS2 coat protein” value is, setting by setting: (input ligand: FMN 200 uM) 0.0191 µM; (input ligand: none) 0.0271 µM.
Turning to “AAAUCGGUAGAGGAUAUUGUACAGGAAACGGUGCAAGAAGGUUGCACAUGAGGAUCACCCAUGUUAAAUUGCGA [EX6 #51] (Eterna round: R97, puzzle: Exclusion 6)”, the “apparent KD of MS2 coat protein” value was determined as 0.0394 µM (input ligand: FMN 200 uM) and 0.0388 µM (input ligand: none).
The matching figures for “AAAUGACAUUAGGAUAUAUAACGCGGCUGCCGCAUAGAAGGGAUGACUUGAGGAUCACCCAAGUGACCCAAGGA [Arcere] (Eterna round: R97, puzzle: Exclusion 6)”: 0.0282 µM and 0.0308 µM.
For “AAAUGUGCGAGAGGAUAUCGUGUACAAAGUACACGAGAAGGCUUCACAUGAGGAUCACCCAUGUACCGAGGUGAAACACCUUGA [Omei Exc(NG)1 Bv4] (Eterna round: R96, puzzle: Exclusion NG 1)”, the “apparent KD of MS2 coat protein” value (input ligand: FMN 200 uM) stood at 0.599 µM, the “apparent KD of MS2 coat protein” value under setting [1] was 0.149 µM and the “apparent KD of MS2 coat protein” value (input ligand: none) is 0.198 µM.
